Measured values: doi:10.1101/2023.04.11.536446

Molecular target: Langya virus fusion protein (LayV-F) ectodomain, uncleaved (Langya virus)
Assay: cryo-EM structure

Langya virus fusion protein (LayV-F) ectodomain, uncleaved (domain or fragment)
stoichiometry N: 3
